US20250066490A1 (PROFOUNDBIO US, published 2025)

Experiments:
[1] = target: T1, human CD70 expressed on the cell surface of tumor cell lines (human, UniProt P32970 1-193); test: flow cytometry on 786-O cells
T1 construct: whole, on cells
T1 sequence (looked up): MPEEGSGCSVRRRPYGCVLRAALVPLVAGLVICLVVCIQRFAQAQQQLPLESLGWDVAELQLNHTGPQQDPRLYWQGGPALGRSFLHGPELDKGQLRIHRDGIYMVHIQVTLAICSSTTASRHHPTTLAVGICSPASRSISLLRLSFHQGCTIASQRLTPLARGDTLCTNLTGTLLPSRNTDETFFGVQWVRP
Experimental: (§1) The lead antibodies were tested for binding to renal carcinoma cells and glioblastoma cells expressing CD70 on the cell surface by flow cytometry. […] U251 cells were cultured with MEM medium containing of 10% FBS and 1% NEAA+1 mM sodium pyruvate. DBTRG-05MG cells were cultured with DMEM medium (Gibco, Cat #C11995500BT) containing of 10% FBS. Each of the lead antibodies and the controls were incubated for 30 mins with the different cell lines (3×10⁵ cells per well) in 0.2 ml FACS buffer (1×PBS with 0.1% BSA) at 4° C. Then, the cells were pelleted, washed, and incubated at 4° C. for 30 mins with 100 μl of 1:200 diluted PE-conjugated anti human Fc (Abcam, Ab98596) in FACS buffer. The cells were pelleted again, washed with PBS, resuspended in FACS buffer and analyzed by flow cytometer (Beckman, CytoFLEX).
(§2) Antibodies 2H8 and 2D2 had slightly higher binding ability to the cell lines than that of antibody 69A7.

[2] = target: T1, human CD70 expressed on the cell …; test: flow cytometry on Caki-1 cells
Experimental: as §1, §2

[3] = target: T1, human CD70 expressed on the cell …; test: flow cytometry on DBTRG-05MG cells
Experimental: as §1, §2

[4] = target: T2, human CD70 extra-cellular domain (ECD) linked to His tag (human, UniProt P32970 39-193); test: BLI, global 1:1 fit over 200-3.13 nM; cell repeated in each concentration row
T2 construct: extracellular domain; also called Hu CD70; HU CD70; not shown: His tag
T2 sequence (looked up): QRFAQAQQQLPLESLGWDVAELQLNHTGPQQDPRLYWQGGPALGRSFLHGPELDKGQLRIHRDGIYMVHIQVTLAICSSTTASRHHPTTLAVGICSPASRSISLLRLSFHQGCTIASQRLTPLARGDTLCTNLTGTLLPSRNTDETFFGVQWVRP

[5] = target: T3, cyno CD70 recombinant ECD protein (cyno); test: as above
T3 construct: extracellular domain; The sentence on the purchase names human, rat and mouse ECD-His only

[6] = target: T1, human CD70 expressed on the cell …; test: flow cytometry on U251 cells, PE anti-human Fc, MFI; same fit as Table 6, which prints it in nM
Experimental: as §1, §2

[7] = target: T1, human CD70 expressed on the cell …; test: flow cytometry on 786-O cells, PE anti-human Fc, MFI; same fit as Table 6, which prints it in nM
Experimental: as §1, §2

[8] = target: T1, human CD70 expressed on the cell …; test: flow cytometry on Caki-1 cells, PE anti-human Fc, MFI; same fit as Table 6, which prints it in nM
Experimental: as §1, §2

[9] = target: T4, cynomolgus CD70 recombinant protein (cynomolgus, UniProt A0A2K5WTU9 39-190); test: ELISA, IgG titrated on coated cynomolgus CD70 recombinant protein (2 µg/ml), anti-human Fc-HRP, OD450
T4 construct: also called cyno-antigen; cynomolgus CD70 protein
T4 sequence: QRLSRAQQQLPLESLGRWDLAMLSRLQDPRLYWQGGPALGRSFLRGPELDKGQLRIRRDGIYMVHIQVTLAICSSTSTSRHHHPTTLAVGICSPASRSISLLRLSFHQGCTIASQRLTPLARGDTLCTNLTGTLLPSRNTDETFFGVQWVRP
Experimental: The binding specificity of the CD70 antibodies was tested by ELISA according to a standard protocol. Briefly, 96-well micro-plates were coated with 2 μg/ml of human or cynomolgus CD70 recombinant protein in PBS at 100 μl per well and incubated overnight at 4° C. The plates were washed twice with TBS+0.5% Tween20. 200 μL of blocking buffer (2% BSA in PBS) was added to each well, and the plates were incubated at 37° C. for 2 hours. The plates were washed using the wash buffer mentioned above. Serially diluted antibodies were added to the ELISA plates using 100 μl per well, and the plates were incubated for 1 hour at room temperature. Then plates were washed 3 times. HRP conjugated anti-human Fc antibody solution (Sigma, I18885-2ML, diluted with blocking buffer) was added to the plates using 100 μl per well. The plates were incubated at room temperature for 1 hour and then washed 3 times. Then the TMB solution was added to plates using 100 μl per well and the plates were placed at RT for 5-15 mins. Then the stop solution (2M H2SO4) was added using 50 μl per well. The absorbance was measured at A450 and A630.

[10] = target: T1, human CD70 expressed on the cell …; test: flow cytometry on Raji cells, PE anti-human Fc, MFI(PE); the text gives this EC50 only as about 19 nM
Experimental: Binding activity of 2E7 or the isotype control with a target cell line (Raji) or a cell line (MCF-7) that has negligible level of CD70 expression were evaluated by flow cytometry (Beckman, Cytoflex). 3×10⁵ cells per well were seeded on a 96-well V-bottomed plate and incubated with 100 μl of 2E7 in serial dilutions. After 30 min incubation at 4° C., cells were washed twice with PBS, stained with 100 μl of 1:200 diluted PE-conjugated anti-human Fc in FACS buffer (1×PBS containing 1% BSA), then incubated at 4° C. for 30 min. Cells were finally washed two times with PBS and analyzed by flow cytometric analysis.

B1: 2E7, full IgG (antibody, V domains shown)
VH: QVQLQESGPGLVKPSETLSLTCTVSGGSVSSDYYYWSWIRQPPGKGLEWLGYIYYSGSTNYNPSLKSRVTISVDTSKNQFSLKLRSVTTADTAVYYCARGDGDFLGVCFDYWGQGTLVTVSS
VL: EIVLTQSPATLSLSPGERATLSCRASQSVSSYLAWYQQKPGQAPRLLIFDASNRATGIPARFSGSGSGTDFTLTISSLEPEDFAVYYCQQRSNWPLTFGGGTKVEIK
EC50 [1]: 2.69 nM
EC50 [2]: 2.81 nM
EC50 [3]: 6.11 nM
Kd [4]: 0.807 nM
koff [4]: 0.000254 s⁻¹
kon [4]: 314000 M⁻¹ s⁻¹
Kd [5]: 0.39 nM
koff [5]: 0.000241 s⁻¹
kon [5]: 618000 M⁻¹ s⁻¹
EC50 [6]: 0.604 µg/mL
EC50 [7]: 0.403 µg/mL
EC50 [8]: 0.421 µg/mL
EC50 [9]: 0.00401 µg/mL
EC50 [10]: 2.98 µg/mL
